Assay results: patent publication US20240252592A1 (TIANJIN INSTITUTE OF PHARMACEUTICAL RESEARCH, published 2024)
Positions count from the first letter of the chain named. Numbered stars: 1 amine (or outer) side, 2 acyl side, 3 side chain; on linkers, the order of the positions; unused ones are H or OH. Square brackets hold non-standard residues; d marks the D form. Side chains are listed from the residue outwards. Ends that are not written are not given here. * marks the point of attachment. C20 diacid = O=C(O)CCCCCCCCCCCCCCCCCCC(=O)*; C18 diacid = O=C(O)CCCCCCCCCCCCCCCCC(=O)*; γGlu = O=C(O)[C@H](CCC(=O)[*:2])N[*:1]; Palmitoyl = CCCCCCCCCCCCCCCC(=O)*; AEEA = NCCOCCOCC(=O)O; Aib = CC(C)(N)C(=O)O

B1: Compound 3 (peptide)
peptide: HXQGTFTSDKSKYLEERAAKEFVAWLKEGGPSSG
HELM: PEPTIDE1{H.[Aib].Q.G.T.F.T.S.D.K.S.K.Y.L.E.E.R.A.A.K.E.F.V.A.W.L.K.E.G.G.P.S.S.G.[am]}|PEPTIDE2{[CCCCCCCCCCCCCCCC(=O)[*:2]].[gGlu].[gGlu]}$PEPTIDE1,PEPTIDE2,10:R3-3:R2$$$V2.0; N-terminus assumed
SMILES: CCCCCCCCCCCCCCCC(=O)N[C@@H](CCC(=O)N[C@@H](CCC(=O)NCCCC[C@H](NC(=O)[C@H](CC(=O)O)NC(=O)[C@H](CO)NC(=O)[C@@H](NC(=O)[C@H](Cc1ccccc1)NC(=O)[C@@H](NC(=O)CNC(=O)[C@H](CCC(N)=O)NC(=O)C(C)(C)NC(=O)[C@@H](N)Cc1c[nH]cn1)[C@@H](C)O)[C@@H](C)O)C(=O)N[C@@H](CO)C(=O)N[C@@H](CCCCN)C(=O)N[C@@H](Cc1ccc(O)cc1)C(=O)N[C@@H](CC(C)C)C(=O)N[C@@H](CCC(=O)O)C(=O)N[C@@H](CCC(=O)O)C(=O)N[C@@H](CCCNC(=N)N)C(=O)N[C@@H](C)C(=O)N[C@@H](C)C(=O)N[C@@H](CCCCN)C(=O)N[C@@H](CCC(=O)O)C(=O)N[C@@H](Cc1ccccc1)C(=O)N[C@H](C(=O)N[C@@H](C)C(=O)N[C@@H](Cc1c[nH]c2ccccc12)C(=O)N[C@@H](CC(C)C)C(=O)N[C@@H](CCCCN)C(=O)N[C@@H](CCC(=O)O)C(=O)NCC(=O)NCC(=O)N1CCC[C@H]1C(=O)N[C@@H](CO)C(=O)N[C@@H](CO)C(=O)NCC(N)=O)C(C)C)C(=O)O)C(=O)O
B2: Compound 16 (peptide)
peptide: B1 peptide with V23I, K27L
HELM: PEPTIDE1{H.[Aib].Q.G.T.F.T.S.D.K.S.K.Y.L.E.E.R.A.A.K.E.F.I.A.W.L.L.E.G.G.P.S.S.G.[am]}|PEPTIDE2{[CCCCCCCCCCCCCCCC(=O)[*:2]].[gGlu].[gGlu]}$PEPTIDE1,PEPTIDE2,10:R3-3:R2$$$V2.0; N-terminus assumed
SMILES: CCCCCCCCCCCCCCCC(=O)N[C@@H](CCC(=O)N[C@@H](CCC(=O)NCCCC[C@H](NC(=O)[C@H](CC(=O)O)NC(=O)[C@H](CO)NC(=O)[C@@H](NC(=O)[C@H](Cc1ccccc1)NC(=O)[C@@H](NC(=O)CNC(=O)[C@H](CCC(N)=O)NC(=O)C(C)(C)NC(=O)[C@@H](N)Cc1c[nH]cn1)[C@@H](C)O)[C@@H](C)O)C(=O)N[C@@H](CO)C(=O)N[C@@H](CCCCN)C(=O)N[C@@H](Cc1ccc(O)cc1)C(=O)N[C@@H](CC(C)C)C(=O)N[C@@H](CCC(=O)O)C(=O)N[C@@H](CCC(=O)O)C(=O)N[C@@H](CCCNC(=N)N)C(=O)N[C@@H](C)C(=O)N[C@@H](C)C(=O)N[C@@H](CCCCN)C(=O)N[C@@H](CCC(=O)O)C(=O)N[C@@H](Cc1ccccc1)C(=O)N[C@H](C(=O)N[C@@H](C)C(=O)N[C@@H](Cc1c[nH]c2ccccc12)C(=O)N[C@@H](CC(C)C)C(=O)N[C@@H](CC(C)C)C(=O)N[C@@H](CCC(=O)O)C(=O)NCC(=O)NCC(=O)N1CCC[C@H]1C(=O)N[C@@H](CO)C(=O)N[C@@H](CO)C(=O)NCC(N)=O)[C@@H](C)CC)C(=O)O)C(=O)O
B3: Compound 21 (peptide)
peptide: H[Aib]QGTFTSDK([γGlu-γGlu-Palmitoyl])SKYLEERAAKEFIAWLEGGPSSG-NH2
modifications: not fully specified; printed as HAibQGTFTSDK*SKYLEERAAKEFIAWLEGGPSSG-Amid
B4: Compound 19 (peptide)
peptide: HXQGTFTSDKSKYLESERAKEFVEWLVKEGGPSSG
HELM: PEPTIDE1{H.[Aib].Q.G.T.F.T.S.D.K.S.K.Y.L.E.S.E.R.A.K.E.F.V.E.W.L.V.K.E.G.G.P.S.S.G.[am]}|PEPTIDE2{[CCCCCCCCCCCCCCCC(=O)[*:2]].[gGlu].[gGlu]}$PEPTIDE1,PEPTIDE2,10:R3-3:R2$$$V2.0; N-terminus assumed
SMILES: CCCCCCCCCCCCCCCC(=O)N[C@@H](CCC(=O)N[C@@H](CCC(=O)NCCCC[C@H](NC(=O)[C@H](CC(=O)O)NC(=O)[C@H](CO)NC(=O)[C@@H](NC(=O)[C@H](Cc1ccccc1)NC(=O)[C@@H](NC(=O)CNC(=O)[C@H](CCC(N)=O)NC(=O)C(C)(C)NC(=O)[C@@H](N)Cc1c[nH]cn1)[C@@H](C)O)[C@@H](C)O)C(=O)N[C@@H](CO)C(=O)N[C@@H](CCCCN)C(=O)N[C@@H](Cc1ccc(O)cc1)C(=O)N[C@@H](CC(C)C)C(=O)N[C@@H](CCC(=O)O)C(=O)N[C@@H](CO)C(=O)N[C@@H](CCC(=O)O)C(=O)N[C@@H](CCCNC(=N)N)C(=O)N[C@@H](C)C(=O)N[C@@H](CCCCN)C(=O)N[C@@H](CCC(=O)O)C(=O)N[C@@H](Cc1ccccc1)C(=O)N[C@H](C(=O)N[C@@H](CCC(=O)O)C(=O)N[C@@H](Cc1c[nH]c2ccccc12)C(=O)N[C@@H](CC(C)C)C(=O)N[C@H](C(=O)N[C@@H](CCCCN)C(=O)N[C@@H](CCC(=O)O)C(=O)NCC(=O)NCC(=O)N1CCC[C@H]1C(=O)N[C@@H](CO)C(=O)N[C@@H](CO)C(=O)NCC(N)=O)C(C)C)C(C)C)C(=O)O)C(=O)O
B5: Compound 17 (peptide)
peptide: H[Aib]QGTFTSDK([AEEA-AEEA-γGlu-C18 diacid])SKYLEERAAKEFVAWLKEGGPSSG-NH2
modifications: N-terminus assumed
SMILES: CC(C)C[C@H](NC(=O)[C@H](Cc1c[nH]c2ccccc12)NC(=O)[C@H](C)NC(=O)[C@@H](NC(=O)[C@H](Cc1ccccc1)NC(=O)[C@H](CCC(=O)O)NC(=O)[C@H](CCCCN)NC(=O)[C@H](C)NC(=O)[C@H](C)NC(=O)[C@H](CCCNC(=N)N)NC(=O)[C@H](CCC(=O)O)NC(=O)[C@H](CCC(=O)O)NC(=O)[C@H](CC(C)C)NC(=O)[C@H](Cc1ccc(O)cc1)NC(=O)[C@H](CCCCN)NC(=O)[C@H](CO)NC(=O)[C@H](CCCCNC(=O)COCCOCCNC(=O)COCCOCCNC(=O)CC[C@H](NC(=O)CCCCCCCCCCCCCCCCC(=O)O)C(=O)O)NC(=O)[C@H](CC(=O)O)NC(=O)[C@H](CO)NC(=O)[C@@H](NC(=O)[C@H](Cc1ccccc1)NC(=O)[C@@H](NC(=O)CNC(=O)[C@H](CCC(N)=O)NC(=O)C(C)(C)NC(=O)[C@@H](N)Cc1c[nH]cn1)[C@@H](C)O)[C@@H](C)O)C(C)C)C(=O)N[C@@H](CCCCN)C(=O)N[C@@H](CCC(=O)O)C(=O)NCC(=O)NCC(=O)N1CCC[C@H]1C(=O)N[C@@H](CO)C(=O)N[C@@H](CO)C(=O)NCC(N)=O
B6: Compound 11 (peptide)
peptide: HXQGTFTSDKSKYLXEKRAKEFIXWLEAGGPSSG
HELM: PEPTIDE1{H.[Aib].Q.G.T.F.T.S.D.K.S.K.Y.L.E.E.K.R.A.K.E.F.I.E.W.L.E.A.G.G.P.S.S.G.[am]}|PEPTIDE2{[CCCCCCCCCCCCCCCC(=O)[*:2]].[gGlu].[gGlu]}$PEPTIDE1,PEPTIDE2,10:R3-3:R2$$$V2.0; N-terminus assumed
SMILES: CCCCCCCCCCCCCCCC(=O)N[C@@H](CCC(=O)N[C@@H](CCC(=O)NCCCC[C@H](NC(=O)[C@H](CC(=O)O)NC(=O)[C@H](CO)NC(=O)[C@@H](NC(=O)[C@H](Cc1ccccc1)NC(=O)[C@@H](NC(=O)CNC(=O)[C@H](CCC(N)=O)NC(=O)C(C)(C)NC(=O)[C@@H](N)Cc1c[nH]cn1)[C@@H](C)O)[C@@H](C)O)C(=O)N[C@@H](CO)C(=O)N[C@@H](CCCCN)C(=O)N[C@@H](Cc1ccc(O)cc1)C(=O)N[C@@H](CC(C)C)C(=O)N[C@@H](CCC(=O)O)C(=O)N[C@@H](CCC(=O)O)C(=O)N[C@@H](CCCCN)C(=O)N[C@@H](CCCNC(=N)N)C(=O)N[C@@H](C)C(=O)N[C@@H](CCCCN)C(=O)N[C@@H](CCC(=O)O)C(=O)N[C@@H](Cc1ccccc1)C(=O)N[C@H](C(=O)N[C@@H](CCC(=O)O)C(=O)N[C@@H](Cc1c[nH]c2ccccc12)C(=O)N[C@@H](CC(C)C)C(=O)N[C@@H](CCC(=O)O)C(=O)N[C@@H](C)C(=O)NCC(=O)NCC(=O)N1CCC[C@H]1C(=O)N[C@@H](CO)C(=O)N[C@@H](CO)C(=O)NCC(N)=O)[C@@H](C)CC)C(=O)O)C(=O)O
B7: Compound 15 (peptide)
peptide: B6 peptide with K10Y, K17R, R18A, I23V
HELM: PEPTIDE1{H.[Aib].Q.G.T.F.T.S.D.Y.S.K.Y.L.D.E.R.A.A.K.E.F.V.A.W.L.E.A.G.G.P.S.S.G.[am]}|PEPTIDE2{[CCCCCCCCCCCCCCCC(=O)[*:2]].[gGlu].[gGlu]}$PEPTIDE1,PEPTIDE2,20:R3-3:R2$$$V2.0; N-terminus assumed
SMILES: CCCCCCCCCCCCCCCC(=O)N[C@@H](CCC(=O)N[C@@H](CCC(=O)NCCCC[C@H](NC(=O)[C@H](C)NC(=O)[C@H](C)NC(=O)[C@H](CCCNC(=N)N)NC(=O)[C@H](CCC(=O)O)NC(=O)[C@H](CC(=O)O)NC(=O)[C@H](CC(C)C)NC(=O)[C@H](Cc1ccc(O)cc1)NC(=O)[C@H](CCCCN)NC(=O)[C@H](CO)NC(=O)[C@H](Cc1ccc(O)cc1)NC(=O)[C@H](CC(=O)O)NC(=O)[C@H](CO)NC(=O)[C@@H](NC(=O)[C@H](Cc1ccccc1)NC(=O)[C@@H](NC(=O)CNC(=O)[C@H](CCC(N)=O)NC(=O)C(C)(C)NC(=O)[C@@H](N)Cc1c[nH]cn1)[C@@H](C)O)[C@@H](C)O)C(=O)N[C@@H](CCC(=O)O)C(=O)N[C@@H](Cc1ccccc1)C(=O)N[C@H](C(=O)N[C@@H](C)C(=O)N[C@@H](Cc1c[nH]c2ccccc12)C(=O)N[C@@H](CC(C)C)C(=O)N[C@@H](CCC(=O)O)C(=O)N[C@@H](C)C(=O)NCC(=O)NCC(=O)N1CCC[C@H]1C(=O)N[C@@H](CO)C(=O)N[C@@H](CO)C(=O)NCC(N)=O)C(C)C)C(=O)O)C(=O)O
B8: Compound 13 (peptide)
peptide: H[Aib]QGTFTSDK([AEEA-AEEA-γGlu-C20 diacid])SKYLDERAAKEFVAWLEAGGPSSG-NH2
modifications: not fully specified; printed as HAibQGTFTSDK***SKYLDERAAKEFVAWLEAGGPSSG-Amid

molecular target: human GLP-1 receptor (human, UniProt P43220 24-463); test: cell-based or functional assay

Row | Binder | EC50 of GLP-1 receptor mediated cAMP production [nM]
1 | B1 | 20.8
2 | B2 | 0.405
3 | B3 | 0.83
4 | B4 | 3.53
5 | B5 | 2.21
6 | B6 | 3.05
7 | B7 | 0.58
8 | B8 | 0.076

molecular target: GC receptor; test: cell-based or functional assay

Row | Binder | EC50 of GC receptor mediated cAMP production [nM]
9 | B1 | 0.1
10 | B2 | 0.092
11 | B3 | 0.175
12 | B4 | 6.25
13 | B5 | 0.486
14 | B6 | 1.73
15 | B7 | 0.148
16 | B8 | 0.033
